According to PMC11136987 (2024):

Columns and labels:
[1] = biological target: recombinant full-length HAX-1 (UniProt O00165 1-279); experiment: BLI
[2] = biological target: recombinant full-length ASC (UniProt Q9ULZ3 1-195); experiment: BLI
Chain of recombinant full-length ASC (Q9ULZ3 whole entry): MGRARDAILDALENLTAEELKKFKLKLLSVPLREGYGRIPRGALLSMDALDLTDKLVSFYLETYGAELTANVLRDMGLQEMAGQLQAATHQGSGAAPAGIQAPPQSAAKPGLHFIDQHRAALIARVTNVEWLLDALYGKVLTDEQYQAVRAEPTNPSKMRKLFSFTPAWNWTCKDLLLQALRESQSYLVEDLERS

Chain of recombinant full-length HAX-1 (O00165 whole entry): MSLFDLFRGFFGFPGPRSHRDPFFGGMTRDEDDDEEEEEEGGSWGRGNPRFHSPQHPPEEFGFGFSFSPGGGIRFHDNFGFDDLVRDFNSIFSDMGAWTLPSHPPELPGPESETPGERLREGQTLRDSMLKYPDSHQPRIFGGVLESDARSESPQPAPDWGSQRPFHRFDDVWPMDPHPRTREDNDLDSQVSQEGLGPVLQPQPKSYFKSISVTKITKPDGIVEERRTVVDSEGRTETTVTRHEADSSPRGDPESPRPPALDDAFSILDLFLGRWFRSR

B1: recombinant partial NLRP3 1-536aa (domain or fragment)
chain: MKMASTRCKLARYLEDLEDVDLKKFKMHLEDYPPQKGCIPLPRGQTEKADHVDLATLMIDFNGEEKAWAMAVWIFAAINRRDLYEKAKRDEPKWGSDNARVSNPTVICQEDSIEEEWMGLLEYLSRISICKMKKDYRKKYRKYVRSRFQCIEDRNARLGESVSLNKRYTRLRLIKEHRSQQEREQELLAIGKTKTCESPVSPIKMELLFDPDDEHSEPVHTVVFQGAAGIGKTILARKMMLDWASGTLYQDRFDYLFYIHCREVSLVTQRSLGDLIMSCCPDPNPPIHKIVRKPSRILFLMDGFDELQGAFDEHIGPLCTDWQKAERGDILLSSLIRKKLLPEASLLITTRPVALEKLQHLLDHPRHVEILGFSEAKRKEYFFKYFSDEAQARAAFSLIQENEVLFTMCFIPLVCWIVCTGLKQQMESGKSLAQTSKTTTAVYVFFLSSLLQPRGGSQEHGLCAHLWGLCSLAADGIWNQKILFEESDLRNHGLQKADVSAFLRMNLFQKEVDCEKFYSFIHMTFQEFFAAMYYLL
modifications: biotinylated (sites not given)
- Kd [1]: 3.38 nM
- Kd [2]: 7.33 nM
